{"source": "paper PMC6355916", "about": "“MITF has a central role in regulating starvation-induced autophagy in melanoma”", "data": [{"target": "MITF (UniProt Q08874 287-403)", "sequence (Q08874 287-403)": "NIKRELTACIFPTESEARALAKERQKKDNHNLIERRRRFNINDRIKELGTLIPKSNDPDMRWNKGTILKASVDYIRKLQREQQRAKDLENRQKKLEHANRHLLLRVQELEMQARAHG", "test": "fluorescence anisotropy; FA: 0.5 nM dsDNA, 10 mM Tris/HCl pH 7.5, 300 mM NaCl, 0.01% Triton X-100, 0.1 mg/mL BSA, 25 °C, 5 min; fit one MITF dimer per dsDNA. Crystals: 0.9 M sodium malonate pH 5.5", "conditions": "protein: recombinant; chain copies: 2; label: 3' fluorescein on strand 1; blunt", "units": {"Kd": "nM"}, "values": [{"binder": "CLEAR-box (FA) (dsDNA) DNA 1: GAGATCACGTGATGAC DNA 2: GTCATCACGTGATCTC", "Kd": "0.9 ± 0.3"}, {"binder": "E-box (dsDNA) DNA 1: GAGACCACGTGTTGAC DNA 2: GTCAACACGTGGTCTC", "Kd": "1.5 ± 0.3"}, {"binder": "M-box (dsDNA) DNA 1: GAGATCATGTGTTGAC DNA 2: GTCAACACATGATCTC", "Kd": "2.6 ± 0.4"}]}]}
